# The supplement of paper PMC10724198
# ± gives the standard deviation of the averaged measurements.
# How the values were obtained:
# [1] = test system: Saccharomyces cerevisiae; assay: protein stability index of tFT-peptide fusion (C-terminal peptide) (PSI (0-1 scale)); higher = more stable (slower turnover)
# Procedure: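 MPS profiling in S. cerevisiae of the tFT-X12 degron library: putative degron peptides plus stable controls, 12 aa, fused to the C-terminus of a sfGFP-mCherry timer. Cells are FACS-sorted into 8 mCherry/sfGFP bins and deep-sequenced. PSI runs from 0 (unstable) to 1 (stable). Backgrounds are wild type, das1Δ and doa10Δ at 30 °C, and wild type, das1Δ, cdc34-1 and cdc53-1 at 37 °C; 2-3 technical replicates each.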
# [2] = test system: Saccharomyces cerevisiae; assay: as above; details: genetic background: wild type; temperature: 30 C
# [3] = genetic background: cdc34-1, temperature: 37 C
# [4] = genetic background: cdc53-1, temperature: 37 C
# [5] = genetic background: das1 deletion, temperature: 30 C
# [6] = genetic background: das1 deletion, temperature: 37 C
# [7] = genetic background: doa10 deletion, temperature: 30 C
# [8] = genetic background: wild type, temperature: 30 C
# [9] = genetic background: wild type, temperature: 37 C
# 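Also: PSI is a weighted mean of sequencing reads over stability bins, variants kept only with over 10 reads, mCherry proximal and sfGFP distal, peptide attached via GGGS linker.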
Sequence,"protein stability index [1, 3]","protein stability index [1, 4]","protein stability index [1, 5]","protein stability index [1, 6]","protein stability index [1, 7]","protein stability index [1, 8]","protein stability index [1, 9]",protein stability index [2]
VFFFNALFCFFC,0.523 ± 0.039,0.51 ± 0.0085,0.535 ± 0.02,0.562 ± 0.0091,0.31138 ± 0.00022,0.291 ± 0.011,0.356 ± 0.0075,0.35 ± 0.0075
VFFSLSLILFPF,0.431 ± 0.037,0.5265 ± 0.0017,0.412 ± 0.022,0.525 ± 0.024,0.3557 ± 0.00081,0.402 ± 0.019,0.4897 ± 0.0017,0.419 ± 0.013
VFFVLAVVGADA,0.383 ± 0.044,0.461 ± 0.024,0.331 ± 0.033,0.551 ± 0.018,0.268 ± 0.0086,0.306 ± 0.02,0.467 ± 0.053,0.397 ± 0.045
VFLFSLLIVFFP,0.213 ± 0.0089,0.3 ± 0.0087,0.226 ± 0.029,0.385 ± 0.00051,0.1951 ± 0.0019,0.216 ± 0.028,0.3338 ± 0.0025,0.219 ± 0.075
VFLLLSLSVFFE,0.0371 ± 0.0054,0.0844 ± 0.0086,0.138 ± 0.0083,0.225 ± 0.0081,0.109 ± 0.014,0.128 ± 0.043,0.142 ± 0.018,0.1721 ± 0.0014
VFSFGLLFQVCR,0.598 ± 0.04,0.625 ± 0.025,0.435 ± 0.022,0.6144 ± 0.0034,0.4081 ± 0.0038,0.452 ± 0.025,0.631 ± 0.053,0.502 ± 0.019
VFSGVTTILVRT,0.578 ± 0.05,0.517 ± 0.026,0.37 ± 0.035,0.576 ± 0.022,0.346 ± 0.0089,0.392 ± 0.018,0.538 ± 0.0096,0.539 ± 0.11
VFSLFLVLNYPF,0.302 ± 0.046,0.296 ± 0.043,0.373 ± 0.021,0.495 ± 0.01,0.466 ± 0.021,0.362 ± 0.012,0.432 ± 0.025,0.446 ± 0.037
VGGLGWCWVCMA,0.573 ± 0.041,0.718 ± 0.035,0.595 ± 0.017,0.75 ± 0.013,0.132 ± 0.01,0.158 ± 0.023,0.246 ± 0.0056,0.25 ± 0.016
VGIFKVCALVLR,0.325 ± 0.019,0.296 ± 0.011,0.324 ± 0.027,0.4622 ± 0.003,0.399 ± 0.0062,0.335 ± 0.016,0.446 ± 0.011,0.483 ± 0.0098
VGVSCVVCVCGV,0.493 ± 0.0071,0.471 ± 0.02,0.289 ± 0.034,0.514 ± 0.0077,0.2604 ± 0.0024,0.295 ± 0.017,0.4873 ± 0.0037,0.3704 ± 0.0011
VGVVVAIGLVRM,0.508 ± 0.013,0.575 ± 0.032,0.381 ± 0.041,0.546 ± 0.0048,0.3423 ± 0.00054,0.377 ± 0.03,0.512 ± 0.019,0.4849 ± 0.0037
VICSLFRYIMRL,0.414 ± 0.021,0.518 ± 0.0071,0.571 ± 0.013,0.6336 ± 0.0037,0.18 ± 0.019,0.132 ± 0.0062,0.134 ± 0.043,0.199 ± 0.0043
VIFFEFFLSFGE,0.267 ± 0.0089,0.481 ± 0.024,0.281 ± 0.026,0.452 ± 0.026,0.253 ± 0.033,0.32 ± 0.025,0.433 ± 0.0069,0.413 ± 0.0071
VIRIRLSCSVDV,0.326 ± 0.04,0.42 ± 0.047,0.323 ± 0.022,0.411 ± 0.0063,0.313 ± 0.023,0.322 ± 0.021,0.387 ± 0.013,0.367 ± 0.026
VISVFAISTRVD,0.489 ± 0.076,0.4901 ± 0.00049,0.409 ± 0.057,0.5675 ± 0.0051,0.398 ± 0.01,0.414 ± 0.018,0.513 ± 0.066,0.475 ± 0.0055
VIVQSWEIIRLN,0.553 ± 0.055,0.71 ± 0.0093,0.604 ± 0.022,0.7176 ± 0.0053,0.0878 ± 0.0043,0.105 ± 0.026,0.122 ± 0.0068,0.21 ± 0.018
VKVKMKIIIIIK,0.243 ± 0.16,0.258 ± 0.16,0.28 ± 0.044,0.416 ± 0.032,0.3087 ± 0.0006,0.281 ± 0.087,0.432 ± 0.012,0.341 ± 0.0073
VLGFRPLVFLCF,0.235 ± 0.058,0.252 ± 0.029,0.324 ± 0.029,0.4637 ± 0.0028,0.392 ± 0.011,0.304 ± 0.013,0.392 ± 0.0027,0.3239 ± 0.0027
VLRACCDWGFLV,0.53 ± 0.0055,0.696 ± 0.039,0.655 ± 0.017,0.77382 ± 0.00011,0.108 ± 0.0016,0.108 ± 0.03,0.163 ± 0.024,0.161 ± 0.02
